Experimental data as given in patent US20120231013A1.

Biological target: recombinant TIMP-3 (human or mouse; Table 2 does not say which)
Assay: AlphaScreen, biotinylated TIMP-3, Assay 1

recombinant TIMP-3 (human or mouse; Table 2 does not say which), sequence (P35625 24-211): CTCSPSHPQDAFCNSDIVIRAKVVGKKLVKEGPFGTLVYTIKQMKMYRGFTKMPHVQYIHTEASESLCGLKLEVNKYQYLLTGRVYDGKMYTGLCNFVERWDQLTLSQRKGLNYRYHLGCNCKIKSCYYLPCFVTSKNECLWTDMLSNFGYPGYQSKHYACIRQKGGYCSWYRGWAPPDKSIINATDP

Q: Which total signal (cps) does the source give for CNASSQFLCSSGRCVAEALLCNGQDDCGDSSDERGCHINE [LRP-1 peptide LA20] here?
A: 2200 cps
